The nature of this data set: label from the status in PepcDB records.
Turning to “MFEFISLDRDGVLYIAAFLVIIRSVSLYIFSKGNNVDKANVNILMLVFFLLFMTASSLSSWPLIYFLALFFVGSIISFTWFTYSGMITPFGSGLTAISTTLLLCLLSYMLSFYETFVEHGFQAIFIAIFLFSIITSIYSFYYLPFSQNSLFYLNFKRNKKVMHIQSVSEVYSPKVTIHLPCYSEPPEIVINTLNSISALDYDNYEVIVIDNNTRDETLWKPVEKHCSMLGEKFRFYHVPVLAGAKAGALNYALKITSSDTELIAVIDADYITEPDFIRRYVKIFKDENVGFVQTSHDYYNHQSSPVMEGAYYFWTLFHKIELPSYTEINAAFTVGTMCILRRNILEKVGGWDETALTEDSELAVRMHAQGYIGYVFADTVGRGLIPTTFSDMKKQQVRWTAGPVQQLLKHWRLYFGFSSENKMTLNQRVMEIRHSTSRIKPVFSLISLHIMVVVSFFLLSGNVYLSIPYEFIVFFLCMLISTFIEKMAYFRLFNCSGILPVFYHGIMARALEWTFIYGVISSLFGFSMKWDRTNKFENSKSIKRAFLASKIEVVMSVFFFLYSFFLLSGNHSGYNDFVFLTGIACLVKGIGFLCALLVASLLENNLRILEAP”, the protein production result is recorded as “failed”.

As for “MFELLFLLLPIAALYGWYIGRLSVKKEQESINNKFSRDYVTGLNFLLSNQQEKAVDLFLSMLQKQESENQIATESQFEAELTLGNLFRSRGEVDRALRIHQALDSSLNYSIEQKLLAKQQLAKDFMAAGFYDRAENYYILLLDEPEFAVNSLTQLMVLYQKTNEWKKAINVAEKLLKIDPKTDRIPLSHYYCEYAQAIKSEDEDLYLRLLGKALEYSPLCTRASMLLGDYYLAQGQFSQALTHFEHILVQDPDYISEVLHNIKTCHAALHDFINYELFLIRSNQVKHNSSVDIALAELIEQKDGLIAAHSKLYQQLSKYPSMLIFHRFIYYQINEAEEGSAKESLVLLHNMVGARIKKSFQYRCLNCGYQSYRLSWYCPSCRQWEQIKPINGIDSY”, the protein production entry is reported as “failed”.

For the sequence “MFELWYIHISLAIVSAIFSILIFLEFKSLRKEFHGKLSGVLLLISVLLLFESVVNAVAFSMWSYGHDPVYVYPSMAIAIVSTSVIILFYYYVAKV”, the protein production result is listed as “failed”.

Turning to “MFEMGIQELVKTIDTNINHMISLSVLNLAQLGIKYGIFKAVASRPSYEELLSQIPVPNKPLLKKLIEHLKALGIIEETPSNLILNGFSYVLKFPKEDYMLLLSDWIPIWEEIYKMVDFALISYSHPYVLMDFDKDADFWDIRLSSSFNKTYRDAIINLGEIREDSYILDLGCGSVSPAYFGKFISEDGKYVGVDYSPGLLEIARERVERNGLPAELKEMDVSLIRTRSKYDVAIMSFLLEYVRDREEVLGKVLEALDSGGKLIIVEAFRDEFENIQAMEFFESLNRSFVGYPAKAEIKKAILREGFDVSFEDYGKSILVVRKL”, the protein production result is listed as “failed”.

For the sequence “MFENTLVVIKGAGDIATGVGRRLFRCGFPLVMTEQLQPTPVRRTVAFAEAVYKGETTVEGVTARLIEDPAHVYSTLREGHIPIIPDPEAHIIRVLNPKVVVDAILAKKNLGTAKSNAPIVIGLGPGFTAGKDVHAVIETNRGHNLGRVILNGSAEPNTGVPGVVNGYGSERVLRSPADGAIVPIREIGDFLLKGDVIAVVEGEPVVAPFDGTLRGLVHEKVTVFKGMKIGDVDPRASREHCYTISDKALAISGGVLEAILSHRHVITE”, the protein production result is “failed”.

“MFERFDSDRSRYASLGVVSSLPSGLIDSIWLIIDLNLKGVIPLNDLLHFDLLNNNGKVTVHFSQENSSVEMAIDLPFSYSTAYPSRIFAFDDGHRETILLPAEMLES”: the protein production result is recorded as “not failed”.

Consider “MFERFTEKAIKVITLAQEEARRLGYNFFGTEHILLSLIGEGTGIAAKVLKSMGINLKDARVEVEKIIGRGSGFVVVEIPFTPRKACAGFVTRGSSTTRHKGIAVRVLEILGADPSNIRTQVNAPILVNSQQALVAEVMETATWQVGNTRRGKLDPVVGRQPQIKRVVQILARRTCRNNACLIGKPGVGKRAIAEGIAQRIASGDVPETIKGKMNVAGNCGWNEIRWRSRGKIEEVYGQSDDIILFIDEMHLLIGAGAVEGAIDAANILKPALERCELQYRKHIENDPALERRFQPVKVPEPTVEEAIQITTVLAKGKEVNKADNEAEEGRPTVTEADNEAE”, for which the protein production result is reported as “failed”.

“MFESLNKVINGYGLISGFAIIGVTMAVSYWLSARLTRGRLHGSAIAIFLGLVLSYVGGVATGGQKGLVDVPLMSGIGLLGGAMLRDFAIVATAFGVNVEELRRAGVSGVVSLFLGVGSSFVAGVAVAMAFGYTDAVSLTTIGAGAVTYIVGPVTGAALGASSEVMALSIAAGLVKAILVMVLTPFVAPYIGLNNPRTAVIFGGLMGTSSGVAGGLAATDPKLVPYGCLTAAFYTAIGCLLGPSLLYFSVRGLVG”: the protein production entry is “failed”.

For “MFFKQFYDKHLSQASYLIGCQKTGEAMIIDPIRDLSSYIRVADEEGLTITHAAETHIHADFASGIRDVAIKLNANIYVSGESDDTLGYKNMPNHTHFVQHNDDIYVGNIKLKVLHTPGHTPESISFLLTDEGAGAQVPMGLFSGDFIFVGDIGRPDLLEKAVKVEGSSEIGAKQMFKSIESIKDLPDYIQIWPGHGAGSPCGKSLGAIPTSTLGYEKQTNWAFSENNEATFIDKLISDQPAPPHHFAQMKKINQFGMNLYQPYTVYPATNTNRLTFDLRSKEAYHGGHIEGTINIPYDKNFINQIGWYLNYDQEINLIGDYHLVSKATHTLQLIGYDDIAGYQLPQSKIQTRSIHSEDITGNESHILDVRNDNEWNNGHLSQAVHVPHGKLLETDLPFNKNDVIYVHCQSGIRSSIAIGILEHKGYHNIINVNEGYKDIQLS”, the protein production result is given as “not failed”.

On to “MFFMLFVLRIPAAFTLMMVGFLGIATVTTWDAALAMLGSELWGSFSNYGLTVIPLFILVGEIVHYAGYNNSLYHATYKWFGHKRGGLAMTTILASAAFSAISGSNTATAATMSAVAIPAMKEYKYHPLLNAGSVAAGATLGVLIPPSIVLVVYGLYTGQSIGKLFFGNVIPSAILTILILLTVVWICRRHPDWGPEGPRSGWGERFAALPEAIDILILFAIIMYALFTGVVTATEAAAVSCFLALVICGLRRKLTWKKLTGALVDTLRISCMVFMIVAGAVIFAKFLTITRLPYETAEWISSLDLPRWMVLWVILACYIIGGCIMDALAFLLVSLPIFYPLVTQLGYDPIWFGQVITIVTTMGSIMPPIGICCYVVSGMSGIPLGTVFRSGLYYMPSYIASIAILMVSPYWTVLVLADLVK”, for which the protein production entry is “failed”.

As to “MFFMQNTKSIYIIIPVHNRREVTLQCLTTLKLNEDLDQYRIVVVDDDSTDGTREAVNAQFPQVIVLEGDGNLWWTGAVKMGMKYAYEQGGELFILLNDDCYPQMGTISKLLKKIDENPNSVIGVQCLDPKSKEPSYGGILTNNNKLQVVKIFHTFNSMTDCDALNGNLLAIPRNIVDKVGFPDAKRFPHHFGDFVYTNRIKKEGYKLFLCNDIVALCEYHYNGLSKKSSQFNRFQELFTPTSQFYWKTEMKGYIELFGIKGIIIYLHKRCLLSSLKVIFLLLDQKLTL”, the protein production result is recorded as “failed”.

Turning to “MFFRSIRFSLTLWYAVTLAVILVLFSSFIYLVLSNQLNKGIDRELLTVAEAVASPTLEPFRHAAPSVFDQVLEDFIGTRLTGKHVQVLDGSGAVAASSKSMEELRIPLGKTALRRVQAGKVSYETRVNLDVYPVRTIVYPIMTDGRLDQIVLVGTSMRGPAETLEKVQLVFAVSIPLALILWSLGGWFLAGRALKPVDLITRSARKITAENLGLRLEVINPQDEIGRLATTFNDTLERLENAFNRIRQFTGDVSHELRTPLTILRGEAEVGLKWAKEPEEFRELLRSNLEEINRMSKIIETLLELSRVEGGVKLELADLDLSDLLAELVQQSRLIAPDKSLRIAFVGQEPVTILGDWLRLRQVFMNLLDNAVKYTPADGEISVVVDTTGDSARVAIIDSGPGIPPEDLPHIFERFYRVDKARNRADGGCGLGLSLVKTFVEAHGGRIEVVSEAGKGSIFTVLLPRVVAG”, the protein production entry is recorded as “not failed”.

In the case of “MFFVNRRLIKRVFLGFAVIALLLPLVLKQSFEITAEVIVQSKKLSQTDANTVLAPDSDKFIPPSLADMETESNILRSPTLIRDTIDQLRREGQFGGSEGLLTRLIVKPIRNGLIDPLRNHVINPVRGFFGLAVDPVRDTSLDAFTDQAVKDLKIGTLPGSNVISIVYASPNAAEGTRFVERLLANYLKNRQDLQSNELPEAFYEQKKAQYQSRLDDLEGKRQALLEAAHASDPKEEITFRLNAINTEEQSLNGYRDQALENQRRLDYLQKNLAAARKAGLTDYTFPFAFANTVDNVAYEDREIKQLGEQLTNLVSQYGTTADTYRADSVPMQQQREQIVRARAQFLKVVENRVRERSSDLQITQSVIAQKTARINDYKARVRDLQEVLSKLRQLDTEIDALHKAFFTYTQRYEESRGERLISGELSNARVLSQPYEPSEAAFPKPMLIIPLGLLTGLLLAIALGYVYEFFDHRFKHPAQVSDHLGLPVLMVLNAVEQPQVNPYPRWTWRWAWHWAKQ”, the protein production entry is “failed”.

For the sequence “MFGAELVIVLLAIYLGARLGGIGIGFAGGLGVLVLTLIFQIKPGAIPFDVIEIIMAVIAAIAAMQVAGGMDYLVSLAERMLRRHPKYITFLAPLVTWFMTVLAGTGHTAFSTLPVITEVAKEQGIRPSRPLSIAVVASQIAITASPISAAVVFFAGILEPLGVSYLTLLAICIPVTLLAVMLTAIVCNFLGCELKDDPVYQERLAKGEVRLRGSQVFELQPHAKRSVLLFLIGIVAVMFYATAISDTVGLIKNPVLPRNEAIVVFMLTIATLISITCKIDTGEVLNASTFKSGMSACVCVLGVAWLGDTFVKAHISDIQAVAGDLLHNYPWLLAVVLFFAATLLYSQAATTKALMPAALLLGVSPLTAIASFAAVSALFVLPTYPTLLAAVEMDDTGSTRIGKYVFNHAFLIPGVIAITLCVILGFIFGGIML”, the protein production result is “failed”.

“MFGCLVAGRLVQTDAQQVASDKFVFNLPDYEHVNHVVVFLLGTVPFPEGLGGAVYLCVPGGAAGQVWQLLGFITNEKPSAIFRISGLKAGEGSSHPFGMMDAPAAPSMAQVGVSVEGLHLLAQQTPVSSSAVSTLDSFTQFTQKMLDSLFNFTSSFALSQSRMSPNPSEMFIPASSIRRWYENFQRRLMQNPNFWKT”: the protein production result is reported as “failed”.

Consider “MFGCPKDLLNGPCGGALDGKCEVNSNLCPWYSLMEKFELLDGAPLLVEHPVVLEMERIFEGEEVEIKRSSFIKNLGRGKAISVEFPIRLFEKGVREFRKVGDLYTIPDNPLGYPHISPTALGTWLKSKGHSVMPHLTAKDRNVIAISSEFRTALEFDFEGILITTGDWSGFILQGKPVFDLDSANMIRLAKLMFSGVLPTGERVEVKERPFIAGTVNPNYPAKLEGKRLARKIIAGADLVISQVVANRKVVREIPKILQEALKYSPHEVPVVVSILYPLKRELEPILRKMGIKTGDDIRAIVEEISSLEFGGINVIVFEETRWEEKLNEVLDLLKELL”, for which the protein production entry is reported as “failed”.

Consider “MFGLGGEAMIKTQVVKLKVNKTMQKHLDALCDYRRYCWNKGLETWQLMYEAHTLTTKDNPSPNERRVRDELVAGKADWQYDLSARCLQLAIKDLANAWKNFLDKAQPDWGKPRFKSKKAPRQGFKTDRAEIVNGKLRLDKPWSIAKDNWFDLASYEALKMRKVKIASIFKEKGLYYAALTYEENIPAKAKTHKKTAIDVNVGHFNYTDGLINVLPVRLQKLYKRIKHYQRMLARKREINGKLATKTNNYLAVRAKLQRDYRKVVNIQNDLLQKFTTRLVNDYDQIVIEDLAVKEMMMTHVASKGMQRSLFGKFRQILTYKCDWYNKELILASKMYPSTQRCAKCGYVKKGDEKITLQGNQKHGTKHNEYICYRCGYTNDRDENAVLNLLALAK”, for which the protein production entry is “failed”.

As to “MFIPQIVPIRDLKNTSAISNLCHKTNEPIFITKNGYGDMVIMSMETYEGNAFFNNLYGNLEEAEMDLQNGRVSGIDEAIEEIKSRYDL”, the protein production result was “failed”.

(Values after a protein production outcome set (Wang et al. 2014).)
